Key:
[1] = molecular target: Yeast cytochrome c peroxidase C128A with MSKT as the first four N-terminal residues (yeast) (UniProt P00431); test: paramagnetic relaxation enhancement NMR; intermolecular PRE: 200 uM [15N,2H] CcP WT (C128A) with 200 uM unlabelled MTSL- or MTS-tagged N38C, N200C or T288C CcP; 20 mM NaPi, 100 mM NaCl, pH 6.0, 293 K; fraction bound and KD estimated from PRE-driven ensemble docking with an assumed correlation time of 45 ns
[2] = molecular target: cytochrome c peroxidase (Saccharomyces cerevisiae) (UniProt P00431); details: cited from earlier work

Chain of cytochrome c (P00044 2-109): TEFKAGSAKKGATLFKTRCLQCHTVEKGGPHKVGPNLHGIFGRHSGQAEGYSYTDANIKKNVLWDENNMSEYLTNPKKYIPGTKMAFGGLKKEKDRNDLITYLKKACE

Kd [1] [µM] | fraction bound [1] | Substance | Kd [2] [µM]
360 | 0.4 | Yeast cytochrome c peroxidase C128A N200C tagged with MTSL (or diamagnetic MTS) at C200 (from UniProt P00431 71-361) (enzyme) | –
360 | 0.4 | Yeast cytochrome c peroxidase C128A T288C tagged with MTSL (or diamagnetic MTS) at C288 (from UniProt P00431 71-361) (enzyme) | –
360 | 0.4 | Yeast cytochrome c peroxidase C128A N38C tagged with MTSL (or diamagnetic MTS) at C38 (from UniProt P00431 71-361) (enzyme) | –
– | – | cytochrome c (from UniProt P00044) | 5

Source: PMC4908164
